This is an account of results in publication PMC5662737, “Structural and mechanistic insights into ATRX-dependent and -independent functions of the histone chaperone DAXX” (Nature Communications, 2017).

Positions count from the first letter of the chain named. Numbers in names are those of the source.

Experiment [1] concerns the target T1, hDAXX 4HB F87A (Homo sapiens).
T1 chain: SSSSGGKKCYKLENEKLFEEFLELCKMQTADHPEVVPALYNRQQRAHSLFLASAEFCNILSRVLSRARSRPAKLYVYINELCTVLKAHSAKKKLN
Kind of experiment: ITC. A general note: In ITC the heat of successive injections is recorded.

Experiment [2] deals with T2, human DAXX four-helix bundle domain (4HB, residues 50–144) (human, UniProt Q9UER7 50-144).
T2 construct: DAXX (death-domain-associated protein), human, N-terminal four-helix bundle, residues 50-144; Expressed and purified 'in a similar way' as the fusion protein (His6-SUMO removed with Ulp1); also called DAXX 4HB; hDAXX 4HB; source: E. coli BL21(DE3)-RIL, purified (Ni-NTA, heparin, Superdex 200); not shown: His6-SUMO, N-terminal, cleaved
T2 sequence (looked up): T1 chain with A38F
The experiment can be described thus: ITC; 17 injections of 2.2 μl ATRX DBM peptide (1.5 mM) into 200 µl DAXX 4HB or mutants (150 µM); 20 °C; 20 mM Tris pH 7.5, 0.3 M NaCl; single site-binding model. The conditions noted are these: both partners purified.

Experiment [3] concerns the target T3, human DAXX 4HB F87L (tumor mutation) (human, UniProt Q9UER7 50-144, F87L).
T3 construct: DAXX, human, four-helix bundle, residues 50-144, with the tumor mutation F87L; also called DAXX F87L; source: E. coli BL21(DE3)-RIL, purified (Ni-NTA, heparin, Superdex 200); not shown: His6-SUMO, N-terminal, cleaved
T3 sequence (looked up): T1 chain with A38L
The experiment is described as above. Particulars: both partners purified.

Experiment [4] has as its target T4, human DAXX four-helix bundle domain (4HB, residues 50–144) (human, UniProt Q9UER7 50-144).
T4 chain: T1 chain with A38F
The experiment can be described thus: ITC.

B1: human ATRX DAXX-binding motif (DBM) peptide, wild type (peptide, UniProt P46100 1265-1288, looked up)
peptide: NDPENRIAKKMLLEEIKANLSSDE
notes: The limits 1265–1288 are printed for the DBM of the fusion construct; also called ATRX DBM; hATRX DBM; source: synthetic peptide (Tufts University Peptide Core Facility)
By Kd is commonly meant the free concentration of one partner at which half of the binding sites on the other are occupied at equilibrium, for simple one-to-one binding. Low readings indicate tighter binding, high ones weaker binding. Take B1: the results for the dissociation constant Kd in experiment [1], in experiment [2] and in experiment [3] were 7.5 µM, 0.9 µM and 33.8 µM, respectively.

B2: human ATRX DBM peptide I1280A (peptide, UniProt P46100 1265-1288, looked up)
peptide: NDPENRIAKKMLLEEAKANLSSDE
notes: ATRX, human, DBM, residues 1265-1288, with I1280A; Limits as for m4; also called ATRX I1280A mutant; source: synthetic peptide (Tufts University Peptide Core Facility)
Turning to B2, in experiment [4], the Kd was 12.9 µM. Moreover, the “fold weaker binding than wild-type ATRX DBM” value in experiment [2] was ~14 fold.
